In patent US12679878B2, “CRF2 receptor agonists and their use in therapy” (SANOFI, priority 2020, dated 2026) one finds EC50 [nM], 0% HSA and EC50 [nM], 0.1% HSA data, which are given here for six molecules.

This experiment concerns the target human corticotropin-releasing factor 2α (CRF2 α receptor) (human), Q13324. Briefly: cell-based or functional assay.

Starred links: 1 amine or outer side, 2 acyl side, 3 side chain; linkers in the order of their positions; H or OH if unused. Non-standard residues stand in square brackets, D forms with d. Groups on a side chain read outwards from the residue. No end group written: not given here. *: point of attachment. C18 diacid = O=C(O)CCCCCCCCCCCCCCCCC(=O)*; γGlu = O=C(O)[C@H](CCC(=O)[*:2])N[*:1]; AEEA = NCCOCCOCC(=O)O; Aib = CC(C)(N)C(=O)O

human corticotropin-releasing factor 2α (CRF2 α receptor) (human), Q13324, sequence (Q13324 20-411): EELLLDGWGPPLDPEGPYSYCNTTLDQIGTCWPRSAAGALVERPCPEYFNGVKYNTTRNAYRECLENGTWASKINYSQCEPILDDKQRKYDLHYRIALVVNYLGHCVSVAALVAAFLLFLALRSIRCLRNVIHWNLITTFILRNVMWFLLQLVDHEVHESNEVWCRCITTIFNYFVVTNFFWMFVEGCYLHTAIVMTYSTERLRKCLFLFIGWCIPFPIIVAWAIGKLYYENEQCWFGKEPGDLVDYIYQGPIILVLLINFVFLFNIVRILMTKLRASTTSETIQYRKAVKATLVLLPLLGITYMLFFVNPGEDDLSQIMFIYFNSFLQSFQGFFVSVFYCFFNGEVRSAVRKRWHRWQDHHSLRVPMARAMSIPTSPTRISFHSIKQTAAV

B1: SEQ ID NO: 126 (peptide)
peptide: IVLSLD[dV]PIKLK([AEEA-AEEA-γGlu-C18 diacid])QILLEQAKQK[Aib]QRAQAEKNKRILERV-NH2
modifications: N-terminus assumed
SMILES: CC[C@H](C)[C@H](N)C(=O)N[C@H](C(=O)N[C@@H](CC(C)C)C(=O)N[C@@H](CO)C(=O)N[C@@H](CC(C)C)C(=O)N[C@@H](CC(=O)O)C(=O)N[C@@H](C(=O)N1CCC[C@H]1C(=O)N[C@H](C(=O)N[C@@H](CCCCN)C(=O)N[C@@H](CC(C)C)C(=O)N[C@@H](CCCCNC(=O)COCCOCCNC(=O)COCCOCCNC(=O)CC[C@H](NC(=O)CCCCCCCCCCCCCCCCC(=O)O)C(=O)O)C(=O)N[C@@H](CCC(N)=O)C(=O)N[C@H](C(=O)N[C@@H](CC(C)C)C(=O)N[C@@H](CC(C)C)C(=O)N[C@@H](CCC(=O)O)C(=O)N[C@@H](CCC(N)=O)C(=O)N[C@@H](C)C(=O)N[C@@H](CCCCN)C(=O)N[C@@H](CCC(N)=O)C(=O)N[C@@H](CCCCN)C(=O)NC(C)(C)C(=O)N[C@@H](CCC(N)=O)C(=O)N[C@@H](CCCNC(=N)N)C(=O)N[C@@H](C)C(=O)N[C@@H](CCC(N)=O)C(=O)N[C@@H](C)C(=O)N[C@@H](CCC(=O)O)C(=O)N[C@@H](CCCCN)C(=O)N[C@@H](CC(N)=O)C(=O)N[C@@H](CCCCN)C(=O)N[C@@H](CCCNC(=N)N)C(=O)N[C@H](C(=O)N[C@@H](CC(C)C)C(=O)N[C@@H](CCC(=O)O)C(=O)N[C@@H](CCCNC(=N)N)C(=O)N[C@H](C(N)=O)C(C)C)[C@@H](C)CC)[C@@H](C)CC)[C@@H](C)CC)C(C)C)C(C)C
Molecule B1 returned an EC50 [nM], 0% HSA of 0.22 nM and an EC50 [nM], 0.1% HSA of 5.59 nM.

B2: SEQ ID NO: 129 (peptide)
peptide: IVLSLD[dV]PIKLK([AEEA-AEEA-γGlu-C18 diacid])QILLEQERQK[Aib]QREQAEKNKQILAQV-NH2
modifications: N-terminus assumed
SMILES: CC[C@H](C)[C@H](N)C(=O)N[C@H](C(=O)N[C@@H](CC(C)C)C(=O)N[C@@H](CO)C(=O)N[C@@H](CC(C)C)C(=O)N[C@@H](CC(=O)O)C(=O)N[C@@H](C(=O)N1CCC[C@H]1C(=O)N[C@H](C(=O)N[C@@H](CCCCN)C(=O)N[C@@H](CC(C)C)C(=O)N[C@@H](CCCCNC(=O)COCCOCCNC(=O)COCCOCCNC(=O)CC[C@H](NC(=O)CCCCCCCCCCCCCCCCC(=O)O)C(=O)O)C(=O)N[C@@H](CCC(N)=O)C(=O)N[C@H](C(=O)N[C@@H](CC(C)C)C(=O)N[C@@H](CC(C)C)C(=O)N[C@@H](CCC(=O)O)C(=O)N[C@@H](CCC(N)=O)C(=O)N[C@@H](CCC(=O)O)C(=O)N[C@@H](CCCNC(=N)N)C(=O)N[C@@H](CCC(N)=O)C(=O)N[C@@H](CCCCN)C(=O)NC(C)(C)C(=O)N[C@@H](CCC(N)=O)C(=O)N[C@@H](CCCNC(=N)N)C(=O)N[C@@H](CCC(=O)O)C(=O)N[C@@H](CCC(N)=O)C(=O)N[C@@H](C)C(=O)N[C@@H](CCC(=O)O)C(=O)N[C@@H](CCCCN)C(=O)N[C@@H](CC(N)=O)C(=O)N[C@@H](CCCCN)C(=O)N[C@@H](CCC(N)=O)C(=O)N[C@H](C(=O)N[C@@H](CC(C)C)C(=O)N[C@@H](C)C(=O)N[C@@H](CCC(N)=O)C(=O)N[C@H](C(N)=O)C(C)C)[C@@H](C)CC)[C@@H](C)CC)[C@@H](C)CC)C(C)C)C(C)C
In turn, B2 yielded an EC50 [nM], 0% HSA of 0.15 nM and an EC50 [nM], 0.1% HSA of 3.02 nM.

B3: SEQ ID NO: 13 (peptide)
peptide: FTLSLDVPTKIK([AEEA-AEEA-γGlu-C18 diacid])QILFKQQKQKKERQQAEKNKQLLEQI-NH2
modifications: N-terminus assumed
SMILES: CC[C@H](C)[C@H](NC(=O)[C@H](CCC(N)=O)NC(=O)[C@H](CCC(=O)O)NC(=O)[C@H](CC(C)C)NC(=O)[C@H](CC(C)C)NC(=O)[C@H](CCC(N)=O)NC(=O)[C@H](CCCCN)NC(=O)[C@H](CC(N)=O)NC(=O)[C@H](CCCCN)NC(=O)[C@H](CCC(=O)O)NC(=O)[C@H](C)NC(=O)[C@H](CCC(N)=O)NC(=O)[C@H](CCC(N)=O)NC(=O)[C@H](CCCNC(=N)N)NC(=O)[C@H](CCC(=O)O)NC(=O)[C@H](CCCCN)NC(=O)[C@H](CCCCN)NC(=O)[C@H](CCC(N)=O)NC(=O)[C@H](CCCCN)NC(=O)[C@H](CCC(N)=O)NC(=O)[C@H](CCC(N)=O)NC(=O)[C@H](CCCCN)NC(=O)[C@H](Cc1ccccc1)NC(=O)[C@H](CC(C)C)NC(=O)[C@@H](NC(=O)[C@H](CCC(N)=O)NC(=O)[C@H](CCCCNC(=O)COCCOCCNC(=O)COCCOCCNC(=O)CC[C@H](NC(=O)CCCCCCCCCCCCCCCCC(=O)O)C(=O)O)NC(=O)[C@@H](NC(=O)[C@H](CCCCN)NC(=O)[C@@H](NC(=O)[C@@H]1CCCN1C(=O)[C@@H](NC(=O)[C@H](CC(=O)O)NC(=O)[C@H](CC(C)C)NC(=O)[C@H](CO)NC(=O)[C@H](CC(C)C)NC(=O)[C@@H](NC(=O)[C@@H](N)Cc1ccccc1)[C@@H](C)O)C(C)C)[C@@H](C)O)[C@@H](C)CC)[C@@H](C)CC)C(N)=O
Molecule B3 yielded an EC50 [nM], 0% HSA of 0.98 nM and an EC50 [nM], 0.1% HSA of 64.1 nM.

B4: SEQ ID NO: 128 (peptide)
peptide: IVLSLD[dV]PIKLK([AEEA-AEEA-γGlu-C18 diacid])QILLKQARQK[Aib]QREQAEKNKRILERV-NH2
modifications: N-terminus assumed
SMILES: CC[C@H](C)[C@H](N)C(=O)N[C@H](C(=O)N[C@@H](CC(C)C)C(=O)N[C@@H](CO)C(=O)N[C@@H](CC(C)C)C(=O)N[C@@H](CC(=O)O)C(=O)N[C@@H](C(=O)N1CCC[C@H]1C(=O)N[C@H](C(=O)N[C@@H](CCCCN)C(=O)N[C@@H](CC(C)C)C(=O)N[C@@H](CCCCNC(=O)COCCOCCNC(=O)COCCOCCNC(=O)CC[C@H](NC(=O)CCCCCCCCCCCCCCCCC(=O)O)C(=O)O)C(=O)N[C@@H](CCC(N)=O)C(=O)N[C@H](C(=O)N[C@@H](CC(C)C)C(=O)N[C@@H](CC(C)C)C(=O)N[C@@H](CCCCN)C(=O)N[C@@H](CCC(N)=O)C(=O)N[C@@H](C)C(=O)N[C@@H](CCCNC(=N)N)C(=O)N[C@@H](CCC(N)=O)C(=O)N[C@@H](CCCCN)C(=O)NC(C)(C)C(=O)N[C@@H](CCC(N)=O)C(=O)N[C@@H](CCCNC(=N)N)C(=O)N[C@@H](CCC(=O)O)C(=O)N[C@@H](CCC(N)=O)C(=O)N[C@@H](C)C(=O)N[C@@H](CCC(=O)O)C(=O)N[C@@H](CCCCN)C(=O)N[C@@H](CC(N)=O)C(=O)N[C@@H](CCCCN)C(=O)N[C@@H](CCCNC(=N)N)C(=O)N[C@H](C(=O)N[C@@H](CC(C)C)C(=O)N[C@@H](CCC(=O)O)C(=O)N[C@@H](CCCNC(=N)N)C(=O)N[C@H](C(N)=O)C(C)C)[C@@H](C)CC)[C@@H](C)CC)[C@@H](C)CC)C(C)C)C(C)C
On to B4, for which the EC50 [nM], 0% HSA amounted to 0.64 nM and the EC50 [nM], 0.1% HSA was 20.1 nM.

B5: SEQ ID NO: 130 (peptide)
peptide: IVLSLD[dV]PIKLK([AEEA-AEEA-γGlu-C18 diacid])QILLKQERQK[Aib]QREQAEKNKQILAQV-NH2
modifications: N-terminus assumed
SMILES: CC[C@H](C)[C@H](N)C(=O)N[C@H](C(=O)N[C@@H](CC(C)C)C(=O)N[C@@H](CO)C(=O)N[C@@H](CC(C)C)C(=O)N[C@@H](CC(=O)O)C(=O)N[C@@H](C(=O)N1CCC[C@H]1C(=O)N[C@H](C(=O)N[C@@H](CCCCN)C(=O)N[C@@H](CC(C)C)C(=O)N[C@@H](CCCCNC(=O)COCCOCCNC(=O)COCCOCCNC(=O)CC[C@H](NC(=O)CCCCCCCCCCCCCCCCC(=O)O)C(=O)O)C(=O)N[C@@H](CCC(N)=O)C(=O)N[C@H](C(=O)N[C@@H](CC(C)C)C(=O)N[C@@H](CC(C)C)C(=O)N[C@@H](CCCCN)C(=O)N[C@@H](CCC(N)=O)C(=O)N[C@@H](CCC(=O)O)C(=O)N[C@@H](CCCNC(=N)N)C(=O)N[C@@H](CCC(N)=O)C(=O)N[C@@H](CCCCN)C(=O)NC(C)(C)C(=O)N[C@@H](CCC(N)=O)C(=O)N[C@@H](CCCNC(=N)N)C(=O)N[C@@H](CCC(=O)O)C(=O)N[C@@H](CCC(N)=O)C(=O)N[C@@H](C)C(=O)N[C@@H](CCC(=O)O)C(=O)N[C@@H](CCCCN)C(=O)N[C@@H](CC(N)=O)C(=O)N[C@@H](CCCCN)C(=O)N[C@@H](CCC(N)=O)C(=O)N[C@H](C(=O)N[C@@H](CC(C)C)C(=O)N[C@@H](C)C(=O)N[C@@H](CCC(N)=O)C(=O)N[C@H](C(N)=O)C(C)C)[C@@H](C)CC)[C@@H](C)CC)[C@@H](C)CC)C(C)C)C(C)C
Molecule B5 returned an EC50 [nM], 0% HSA of 0.05 nM and an EC50 [nM], 0.1% HSA of 2.11 nM.

B6: SEQ ID NO: 127 (peptide)
peptide: IVLSLD[dV]PIKLK([AEEA-AEEA-γGlu-C18 diacid])QILLEQAKQK[Aib]QREQAEKNKRILERV-NH2
modifications: N-terminus assumed
SMILES: CC[C@H](C)[C@H](N)C(=O)N[C@H](C(=O)N[C@@H](CC(C)C)C(=O)N[C@@H](CO)C(=O)N[C@@H](CC(C)C)C(=O)N[C@@H](CC(=O)O)C(=O)N[C@@H](C(=O)N1CCC[C@H]1C(=O)N[C@H](C(=O)N[C@@H](CCCCN)C(=O)N[C@@H](CC(C)C)C(=O)N[C@@H](CCCCNC(=O)COCCOCCNC(=O)COCCOCCNC(=O)CC[C@H](NC(=O)CCCCCCCCCCCCCCCCC(=O)O)C(=O)O)C(=O)N[C@@H](CCC(N)=O)C(=O)N[C@H](C(=O)N[C@@H](CC(C)C)C(=O)N[C@@H](CC(C)C)C(=O)N[C@@H](CCC(=O)O)C(=O)N[C@@H](CCC(N)=O)C(=O)N[C@@H](C)C(=O)N[C@@H](CCCCN)C(=O)N[C@@H](CCC(N)=O)C(=O)N[C@@H](CCCCN)C(=O)NC(C)(C)C(=O)N[C@@H](CCC(N)=O)C(=O)N[C@@H](CCCNC(=N)N)C(=O)N[C@@H](CCC(=O)O)C(=O)N[C@@H](CCC(N)=O)C(=O)N[C@@H](C)C(=O)N[C@@H](CCC(=O)O)C(=O)N[C@@H](CCCCN)C(=O)N[C@@H](CC(N)=O)C(=O)N[C@@H](CCCCN)C(=O)N[C@@H](CCCNC(=N)N)C(=O)N[C@H](C(=O)N[C@@H](CC(C)C)C(=O)N[C@@H](CCC(=O)O)C(=O)N[C@@H](CCCNC(=N)N)C(=O)N[C@H](C(N)=O)C(C)C)[C@@H](C)CC)[C@@H](C)CC)[C@@H](C)CC)C(C)C)C(C)C
B6: the EC50 [nM], 0% HSA amounted to 0.16 nM and the EC50 [nM], 0.1% HSA was 5.14 nM.
